How the values were obtained:
[1] = target: T1, PP1c (Oryctolagus cuniculus, UniProt P62143); assay: Phosphorylase phosphatase activity of PP1c; assay type: biochemical, rabbit
T1 construct: from tissue; host or cells: rabbit skeletal muscle (PP1G dissociated with LiBr)
Procedure: (§1) A,B; Effects of M110-(M1-E309) (closed circles), M110-(M1-F38) (open circles) and M110-(D39-E309) (open triangles) on the MLC20 phosphatase […] and phosphorylase phosphatase (B) activities of PP1c were measured after incubating PP1c for 15 minutes at 30° C. with each fragment. The results are presented as a percentage of those obtained in experiments where the M110 fragments were omitted.
(§2) C,D; The effect of M110-(M1-A150) (open circles) and M110-(L24-Y496) (closed circles) on the MLC20 phosphatase (C) and phosphorylase phosphatase (D) activities of PP1c were measured as in A,B.
(B) The phosphorylase phosphatase activity of PP1c was assayed as in A in the presence or absence of 1 μM GM-(G63-T93) and 1.0 nM M110-(M1-E309). The results are presented (SEM for three experiments) as a percentage of the PP1c activity measured in the absence of GM-(63-T93), M110-(M1-F38) or M110-(M1-E309).
(§3) The myosin-associated form of PP1 (PP1M) was from chicken gizzard and the glycogen-associated form of PP1 (PP1G) from rabbit skeletal muscle. The β isoform of PP1c was released from PP1G by incubation for 2 hours in 2M LiBr, then purified by gel-filtration on a 30×1 cm column of Superose 12 (Pharmacia, Milton Keynes, U.K.) in the presence of 0.5M LiBr. Glycogen protein particles from rat liver were used as the source of hepatic PP1G Digoxygenin-labelled PP1c (γ1-isoform, hereafter termed PP1) was prepared as in [9]. GL was expressed in E. coli as a glutathione-S-transferase (GST) fusion protein [7], termed GST-GL. The catalytic subunit of PP2A from bovine heart (PP2AC) was provided by Dr R. MacKintosh in this Unit. The phosphorylatable myosin light chain (MLC20) and heavy meromyosin from chicken gizzard were a gift from Dr M. Ikebe (Case Western Reserve University, Cleveland, USA). Thrombin and benzamidine-Agarose were purchased from Sigma (Poole, UK).
(§4) ^32P-labelled rabbit skeletal muscle phosphorylase a (containing 1.0 mol phosphate per mol subunit) was prepared by phosphorylation with phosphorylase kinase, ^32P-labelled rabbit skeletal muscle glycogen synthase (containing 1.5 mol/mol subunit in the sites 3 region) was prepared by phosphorylation with glycogen synthase kinase-3 [24]). ^32P-labelled chicken gizzard MLC20 and ^32P-labelled chicken gizzard heavy meromyosin (containing 1.0 mol phosphate per mol subunit) were prepared by phosphorylation with smooth muscle myosin light chain kinase. The dephosphorylation of phosphorylase a (10 μM), glycogen synthase (1 μM) and MLC20 (1 μM) and heavy meromyosin (1 μM) was carried out as in [24]. One unit of activity (U) was that amount which released […] of phosphate in one minute.
(§5) PP1c was isolated from the rabbit skeletal muscle PP1-GM complex as described previously (Johnson et al, 1996). Glycogen particles isolated from rat liver (Schelling el al, 1988) served as the source of PP1-GL. The dephosphorylation of glycogen phosphorylase (10 μM) and the isolated MLC20 of smooth muscle myosin (1 μM) by PP1c was carried out as described previously (Cohen et al., 1988; Alessi et al., 1992).

[2] = target: T1, PP1c; assay: MLC20 (myosin P-light chain) phosphatase activity of PP1c; assay type: biochemical
Procedure: as §1, §2
(A) The MLC20 phosphatase activity of PP1c was assayed after incubation for 15 minutes at 30° C. in the presence or absence of 1 μM GM-(G63-T93) and either 0.1 μM M110-(M1-F38) or 0.1 nM M110-(M1-E309).
(1-38, open circles) or M110[M1-K35] (1-35, closed circles) were incubated with PP1c for 15 min at 30° C. and reactions started with the ^32P-labelled MLC20 substrate. The results are expressed as a % of the activity determined in control incubations where the M110 peptides were omitted (100%). Similar results were obtained in three separate experiments.
as §3, §4, §5
^32P-labelled myosin P-light chains containing 1.0 mol phosphate per mol subunit was prepared by phosphorylation with smooth muscle myosin light chain kinase. The dephosphorylation of myosin P-light chain (1 μM) was carried out as in [4] and one unit of activity (U) was that amount which catalysed the release of 1 μmole of phosphate in one min. When assaying PP1M in immunoprecipitates from the myofibrillar extracts, the tubes were shaken continuously and 3 nM okadaic acid was included to inhibit any PP2A present.

T1 sequence (P62143 whole entry): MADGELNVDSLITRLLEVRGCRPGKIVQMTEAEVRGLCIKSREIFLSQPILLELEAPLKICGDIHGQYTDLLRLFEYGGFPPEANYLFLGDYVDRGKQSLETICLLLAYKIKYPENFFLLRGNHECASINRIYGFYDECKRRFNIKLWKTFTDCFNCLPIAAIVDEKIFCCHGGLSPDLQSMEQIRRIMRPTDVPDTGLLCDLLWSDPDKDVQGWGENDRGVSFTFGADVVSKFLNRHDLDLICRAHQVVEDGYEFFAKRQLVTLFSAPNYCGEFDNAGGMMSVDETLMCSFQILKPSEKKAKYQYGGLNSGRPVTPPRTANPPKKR

B1: M110-(M1-E309): rat aorta M110 fragment, residues 1-309, released from GST-fusion protein with thrombin (protein)
chain: GSPGMKMADAKQKRNEQLKRWIGSETDLEPPVVKRQKTKVKFDDGAVFLAACSSGDTDEVLKLLHRGADINYANVDGLTALHQACIDDNVDMVKFLVENGANINQPDNEGWIPLHAAASCGYLDIAEFLIGQGAHVGAVNSEGDTPLDIAEEEAMEELLQNEVNRQGVDIEAARKEEERIMLRDARQWLNSGHISDVRHAKSGGTALHVAAAKGYTEVLKLLIQAGYDVNIKDYDGWTPLHAAAHWGKEEACRILVDNLCDMETVNKVGQTAFDVADEDILGYLEELQKKQNLLHSEKRDKKSPLIESTANMEA
suppression of PP1c activity towards glycogen phosphorylase [1]: about 80%
concentration required to activate the MLC20 phosphatase activity maximally [2]: 0.1 nM
increase in PP1c activity towards MLC20 (maximal activation) [2]: about 3 fold

Source: patent US6884600B1, “Protein phosphatase-1 catalytic subunit interactions” (Medical Research Council London, priority 1996, dated 2005)
